Data from ChEMBL document CHEMBL1134791, “2- and 3-substituted 1,4-naphthoquinone derivatives as subversive substrates of trypanothione reductase and lipoamide dehydrogenase from Trypanosoma cruzi: synthesis and correlation between redox cycling activities and in vitro cytotoxicity” (J Med Chem, 2001).

Experiments:
Experiment in all cases: Vmax is the maximum velocity of the TcTR (Trypanosoma cruzi trypanothione reductase) catalyzed NADPH oxidation.
[1] = substrate: CC1=C(CCC(=O)NCCCCNCCCNC(=O)CCC2=C(C)C(=O)c3cccc(O)c3C2=O)C(=O)c2c(O)cccc2C1=O
[2] = substrate: CC1=C(CCC(=O)NCCCN2CCN(CCCNC(=O)CCC3=C(C)C(=O)c4cccc(O)c4C3=O)CC2)C(=O)c2c(O)cccc2C1=O
[3] = substrate: CC1=C(CCC(=O)NCCCN2CCN(CCCNC(=O)CCC3=C(C)C(=O)c4ccccc4C3=O)CC2)C(=O)c2ccccc2C1=O
[4] = substrate: CC1=C(CCC(=O)NCCCNCCCNC(=O)CCC2=C(C)C(=O)c3cccc(O)c3C2=O)C(=O)c2c(O)cccc2C1=O
[5] = substrate: CC1=C(CCC(=O)NCCCNCCCNC(=O)CCC2=C(C)C(=O)c3ccccc3C2=O)C(=O)c2ccccc2C1=O
[6] = substrate: CC1=C(CCCC(=O)NCCCCNCCCNC(=O)CCCC2=C(C)C(=O)c3ccccc3C2=O)C(=O)c2ccccc2C1=O
[7] = substrate: CC1=C(CCCC(=O)NCCCN2CCN(CCCNC(=O)CCCC3=C(C)C(=O)c4cccc(O)c4C3=O)CC2)C(=O)c2c(O)cccc2C1=O
[8] = substrate: CC1=C(CCCC(=O)NCCCN2CCN(CCCNC(=O)CCCC3=C(C)C(=O)c4ccccc4C3=O)CC2)C(=O)c2ccccc2C1=O
[9] = substrate: CC1=C(CCCC(=O)NCCCNCCCNC(=O)CCCC2=C(C)C(=O)c3ccccc3C2=O)C(=O)c2ccccc2C1=O
[10] = substrate: CC1=C(CCCCC(=O)NCCCCNCCCNC(=O)CCCCC2=C(C)C(=O)c3cccc(O)c3C2=O)C(=O)c2c(O)cccc2C1=O
[11] = substrate: CC1=C(CCCCC(=O)NCCCN2CCN(CCCNC(=O)CCCCC3=C(C)C(=O)c4ccccc4C3=O)CC2)C(=O)c2ccccc2C1=O
[12] = substrate: CC1=C(CCCCC(=O)NCCCNCCCNC(=O)CCCCC2=C(C)C(=O)c3cccc(O)c3C2=O)C(=O)c2c(O)cccc2C1=O
[13] = substrate: CC1=C(CCCCC(=O)NCCCNCCCNC(=O)CCCCC2=C(C)C(=O)c3ccccc3C2=O)C(=O)c2ccccc2C1=O
[14] = substrate: CC1=C(CCCCCC(=O)NCCCCNCCCNC(=O)CCCCCC2=C(C)C(=O)c3cccc(O)c3C2=O)C(=O)c2c(O)cccc2C1=O
[15] = substrate: CC1=C(CCCCCC(=O)NCCCCNCCCNC(=O)CCCCCC2=C(C)C(=O)c3ccccc3C2=O)C(=O)c2ccccc2C1=O
[16] = substrate: CC1=C(CCCCCC(=O)NCCCN2CCN(CCCNC(=O)CCCCCC3=C(C)C(=O)c4cccc(O)c4C3=O)CC2)C(=O)c2c(O)cccc2C1=O
[17] = substrate: CC1=C(CCCCCC(=O)NCCCN2CCN(CCCNC(=O)CCCCCC3=C(C)C(=O)c4ccccc4C3=O)CC2)C(=O)c2ccccc2C1=O
[18] = substrate: CC1=C(CCCCCC(=O)NCCCNCCCNC(=O)CCCCCC2=C(C)C(=O)c3cccc(O)c3C2=O)C(=O)c2c(O)cccc2C1=O
[19] = substrate: CC1=CC(=O)c2c(O)cccc2C1=O
[20] = substrate: CC1=CC(=O)c2ccccc2C1=O

B1: Trypanothione reductase (Trypanosoma cruzi), P28593 (protein)
chain: MMSKIFDLVVIGAGSGGLEAAWNAATLYKKRVAVIDVQMVHGPPFFSALGGTCVNVGCVPKKLMVTGAQYMEHLRESAGFGWEFDRTTLRAEWKKLIAVKDEAVLNINKSYEEMFRDTEGLEFFLGWGSLESKNVVNVRESADPASAVKERLETENILLASGSWPHMPNIPGIEHCISSNEAFYLPEPPRRVLTVGGGFISVEFAGIFNAYKPKDGQVTLCYRGEMILRGFDHTLREELTKQLTANGIQILTKENPAKVELNADGSKSVTFESGKKMDFDLVMMAIGRSPRTKDLQLQNAGVMIKNGGVQVDEYSRTNVSNIYAIGDVTNRVMLTPVAINEAAALVDTVFGTNPRKTDHTRVASAVFSIPPIGTCGLIEEVASKRYEVVAVYLSSFTPLMHNISGSKYKTFVAKIITNHSDGTVLGVHLLGDNAPEIIQGVGICLKLNAKISDFYNTIGVHPTSAEELCSMRTPSYYYVKGEKMEKPSEASL
B1 showed a Vmax (µM min-1 mg-1) [1] of 4.44, a Vmax [2] of 4.74 µM/min/mg and a Vmax [3] of 0.74 µM/min/mg. The Vmax [4] was 12.4 µM/min/mg, the Vmax [5] was 1.3 µmol/min/mg and the Vmax [6] was 2.04 µM/min/mg. The Vmax [7] was 2.16 µM/min/mg, the Vmax [8] was 0.6 µM/min/mg and the Vmax [9] was 0.45 µM/min/mg. The Vmax [10] was 3.11 µM/min/mg, the Vmax [11] was 1.61 µM/min/mg and the Vmax [12] was 3.83 µM/min/mg. For the same protein, the Vmax [13] was 0.34 µM/min/mg, the Vmax [14] was 5.91 µM/min/mg and the Vmax [15] was 1.2 µM/min/mg. For the same protein, the Vmax [16] was 1.61 µM/min/mg, the Vmax [17] was 0.47 µM/min/mg and the Vmax [18] was 4.87 µM/min/mg. The Vmax [19] was 0.31 µM/min/mg and the Vmax [20] was 0.26 µM/min/mg.
